Results: patent US20160320391A1 (Genentech, published 2016)

T1: purified recombinant soluble hamster (Cricetulus griseus) phospholipase B-like 2 (PLBL2), his-tagged (hamster (Cricetulus griseus))
T1 construct: Transiently expressed in CHO-K1 cells and purified from the supernatant; In the rabbit serum assay the protein was biotinylated; also called PLB2; PLBD2; not shown: histidine (his) tag added
T1 chain: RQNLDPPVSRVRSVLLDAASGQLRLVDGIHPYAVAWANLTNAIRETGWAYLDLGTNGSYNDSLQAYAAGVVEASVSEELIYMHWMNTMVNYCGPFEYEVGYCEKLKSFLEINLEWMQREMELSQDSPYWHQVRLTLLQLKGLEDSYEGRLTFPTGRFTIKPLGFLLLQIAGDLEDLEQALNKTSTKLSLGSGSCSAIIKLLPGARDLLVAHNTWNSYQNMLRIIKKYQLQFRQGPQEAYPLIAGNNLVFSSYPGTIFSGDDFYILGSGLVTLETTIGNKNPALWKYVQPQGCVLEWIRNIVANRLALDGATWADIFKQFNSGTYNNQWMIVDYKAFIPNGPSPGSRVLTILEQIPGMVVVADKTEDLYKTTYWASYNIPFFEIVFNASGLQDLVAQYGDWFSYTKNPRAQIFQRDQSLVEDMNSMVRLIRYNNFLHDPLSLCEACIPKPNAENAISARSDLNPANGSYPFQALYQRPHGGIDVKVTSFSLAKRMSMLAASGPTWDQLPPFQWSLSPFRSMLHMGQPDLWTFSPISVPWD

B1: 15G11 anti-PLBL2 murine monoclonal antibody conjugated to biotin (antibody, mouse IgG1, kappa, V domains shown)
VH: EVKLEESGGGLVQPGGSTKLSCAASGFTFSDAWMDWVRQCPEKGLEWVAEISSKANNRATYYAESVKGRFTISRDDSKSCVYLQMNSLRAEDTGIYYCTRRGYTMDYWGQGTSVTVSS
VL: DIVMTQSQKFMSTSVGDRVSVTCKASQNVDTNVAWYQQKPGQSPKALIFSASYRFSGVPDRFTGSGSGTDFTLTISNVQSEDLAEYFCQQYNNFPFTFGSGTKLELKR
modifications: biotin conjugated with E-Z Link NHS-Biotin; sites not stated
notes: Mouse IgG1, kappa, biotinylated; Used as the detection antibody of the monoclonal PLBL2 ELISA; also called biotinylated 15G11; detection antibody
B2: 19C10 (recombinant murine monoclonal anti-hamster PLBL2 antibody) (antibody, mouse IgG1, kappa, V domains shown)
VH: EVQLQESGPCLVKPSQTLSLTCSVTGDSITSGYWNWIRKFPGNKLESMGYISYSGSTYYNPSLKSRISITRDTSKNQYYLQLNSVTTEDTATYYCARIASWITTYFDYWGQGTTLTVSS
VL: DIVMTQSPAILSVSPGERVSFSCRASQSIGTSIHWYQQRRNGSPRLLIKYASESISGIPSRFSGSGSGTDFILSINSVESEDIADYYCQQSNSWPYTFGGGTKLELKR
notes: Mouse IgG1, kappa, expressed transiently in 293 or CHO cells; also called capture antibody; coat antibody

How the values were obtained:
[1] = molecular target: T1, purified recombinant soluble hamster …; assay: sandwich ELISA, biotinylated 15G11 as detection antibody on PLBL2 standard captured by coated 19C10, streptavidin-HRP, OD 450 nm; the value describes the whole sandwich
Experimental: (§1) An ELISA assay to detect and quantify the CHOP impurity, PLBL2, in recombinant polypeptide samples, such as recombinant antibody or immunoadhesin preparations, was developed. The procedure is as follows. Murine monoclonal antibody 19C10 was coated onto a half area 96-well microtiter plate at a concentration of 0.5 μg/mL in carbonate buffer (0.05M sodium carbonate, pH 9.6), overnight at 2-8° C. After coating, the plate was blocked with Blocking Buffer (0.15M NaCl, 0.1M sodium phosphate, 0.1% fish gelatin, 0.05% polysorbate 20, 0.05% Proclin® 300 [Sigma-Aldrich]; also referred to as Assay Diluent) to prevent non-specific sticking of proteins. […]
(§2) After a 2 hr. incubation step with biotinylated 15G11 at room temperature, Streptavidin HRP (1:200,000 dilution in Assay Diluent) was added to the microtiter plate wells. After a final wash step with Wash Buffer (described above), color was developed (for PLBL2 quantification) by adding a solution of TMB (50 μl/well) (SUREBLUE RESERVE™ from KPL, Kirkegaard & Perry Laboratories, Inc., Gaithersburg, Md., cat no. 53-00-03) followed by incubation at room temperature for 10-20 minutes. […]

[2] = molecular target: T1, purified recombinant soluble hamster …; assay: sandwich ELISA, 19C10 coated as capture antibody, PLBL2 standard titrated, detection with biotinylated 15G11 and streptavidin-HRP, OD 450 nm; the value describes the whole sandwich
Experimental: as §1, §2

Binder	EC50 (read off the curve) [1]	EC50 (read off the curve) [2]
B1	~10 ng/mL	
B2		~10 ng/mL
